The target of one test is T1, GST–14-3-3ζ Ser184A (UniProt P63104 1-245, Ser184A).
T1 sequence (looked up): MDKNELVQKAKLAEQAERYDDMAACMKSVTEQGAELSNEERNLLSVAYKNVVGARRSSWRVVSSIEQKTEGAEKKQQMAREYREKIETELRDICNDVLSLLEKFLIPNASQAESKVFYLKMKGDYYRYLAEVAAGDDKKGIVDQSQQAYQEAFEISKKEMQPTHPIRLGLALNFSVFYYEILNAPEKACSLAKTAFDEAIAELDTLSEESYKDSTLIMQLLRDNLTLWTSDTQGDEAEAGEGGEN
In words: pull-down.

A further test deals with T2, GST–14-3-3ζ (WT) (UniProt P63104 1-245).
T2 sequence (looked up): T1 sequence (looked up) with A184S
Kind of test: pull-down.

Where a chain is given by its changes, count along the chain named.

B1: His-tagged Bad wild type, phosphorylated by CA-Akt (natural protein, mouse, UniProt Q61337 1-204, looked up)
chain: MGTPKQPSLAPAHALGLRKSDPGIRSLGSDAGGRRWRPAAQSMFQIPEFEPSEQEDASATDRGLGPSLTEDQPGPYLAPGLLGSNIHQQGRAATNSHHGGAGAMETRSRHSSYPAGTEEDEGMEEELSPFRGRSRSAPPNLWAAQRYGRELRRMSDEFEGSFKGLPRPKSAGTATQMRQSAGWTRIIQSWWDRNLGKGGSTPSQ
modifications: phosphoserine at 136 (by CA-Akt in vitro)
As for B1, the binding result with GST–14-3-3ζ Ser184A is “binds”.

B2: His-tagged Bad Ser128A-Thr201A, phosphorylated by active Akt (natural protein, mouse, UniProt Q61337 1-204, looked up)
chain: B1 chain with S128A, T201A
modifications: phosphoserine at 136 (by CA-Akt in vitro)
With B2, the binding result with GST–14-3-3ζ (WT) is reported as “binds”.

B3: His-tagged Bad Thr201A, phosphorylated by active Akt (natural protein, mouse, UniProt Q61337 1-204, looked up)
chain: B1 chain with T201A
modifications: phosphoserine at 136 (by CA-Akt in vitro)
B3: in the test with GST–14-3-3ζ (WT), the binding result was “binds”.

B4: His-tagged Bad Ser128A, phosphorylated by active Akt (natural protein, mouse, UniProt Q61337 1-204, looked up)
chain: B1 chain with S128A
modifications: phosphoserine at 136 (by CA-Akt in vitro)
For B4, the binding result with GST–14-3-3ζ (WT) is listed as “binds”.

For the origin of these results see PMC2171419 (The Journal of Cell Biology, 2005).
